Source: IntAct's records for PubMed 15841490

B1: SH2 domain-containing protein 1A (Homo sapiens), O60880-1 (parent)
chain: MDAVAVYHGKISRETGEKLLLATGLDGSYLLRDSESVPGVYCLCVLYHGYIYTYRVSQTETGSWSAETAPGVHKRYFRKIKNLISAFQKPDQGIVIPLQYPVEKKSSARSTQGTTGIREDPDVCLKAP
partner: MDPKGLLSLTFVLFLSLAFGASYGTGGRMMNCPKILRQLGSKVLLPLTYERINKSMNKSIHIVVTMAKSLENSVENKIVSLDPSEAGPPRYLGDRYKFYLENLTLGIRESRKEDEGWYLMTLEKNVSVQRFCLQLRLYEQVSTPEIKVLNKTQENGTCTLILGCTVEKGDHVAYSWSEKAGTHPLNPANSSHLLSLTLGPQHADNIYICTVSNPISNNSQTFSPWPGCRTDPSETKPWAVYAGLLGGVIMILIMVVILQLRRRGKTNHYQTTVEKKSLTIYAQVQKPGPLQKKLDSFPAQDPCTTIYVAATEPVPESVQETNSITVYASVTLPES

Variants of: B1
Details: with slaf1_human SLAMF1, Q13291

| Variant | effect of a mutation on the interaction |
| --- | --- |
| G16D | disrupting interaction strength |
